This is an account of results in US10618964B2, “Nanobody against IL-6R” (Ablynx N.V., dated 2020).

Changes are numbered by the printed parent chain.

B1: IL6RPMP105E1 (VHH)
VHH: EVQLVESGGGLVQAGGSLRLSCAASGSIFSIKAMGWYRQAPGKQRELVARITSGGSTYYADSVKGRFTISRDNAKNTVYLQMNSLKPEDTAVFYCNAIVTDSDYDLGNDYWGQGTQVTVSS
B2: IL6RPMP120A5 (VHH)
VHH: EVQLVESGGGLVQAGGSLSLSCATSGRTISDDTMAWFRQAPGKEREFVAIITFNGARTHYSDSVRDRFTISRDNAKNTVYLQMNSLKSEDTAVYYCAASTKYYSSTYNYIHPAFYDIWGQGTQVTVSS
B3: IL6RPMP103C7 (VHH)
VHH: B2 VHH with I50T, N54S, N84D
B4: IL6RPMP103C4 (VHH)
VHH: EVQLVESGGGLVEAGGSLRLSCAAAGRTLSSYSMAWFRQAPGKEREFVAIIRGNPSRTYHSDSVKGRFTASRDNAKNTVYLQMNRLEPEDTAVYYCAADPPPFASDYSAPQSYDYWGQGTQVTVSS

One test addresses IL-6R on TF-1 cells (Homo sapiens (Human), UniProt P08887). Description: cell-based or functional assay.
Take B1: the “IC50, IL-6-dependent proliferation of TF-1 cells (3H-thymidine)” value (“IC50, IL-6-dependent proliferation” for short) was 6.2 nM.
As to B2, the “IC50, IL-6-dependent proliferation” value was 5.59 nM.
The same measure, in the same setting: the result for B3 reads 61.3 nM.
On to B4, for which the “IC50, IL-6-dependent proliferation” value came to 15.6 nM.

For the next test, the target named is T1, native soluble IL-6R in human plasma (human, UniProt P08887). Nature of the test: ELISA 1, periplasmic extract; competitor IL-6; human plasma. (In general: An ELISA detects its analyte on a solid surface through an enzyme-linked reagent.)
Regarding B1, the OD450 ratio sample/blank came to 0.21.
B2: the OD450 ratio sample/blank came out at 0.138.
The same measure, in the same setting: next, B3: 0.413; B4: 0.959.

Another test has as its target T2, soluble IL-6R in cynomolgous plasma (cynomolgus monkey, UniProt A0A2K5WN54). Description: ELISA 2, periplasmic extract; competitor IL-6; cyno plasma.
On to B1, for which the OD450 ratio sample/blank turned out to be 0.0402.
Still for that read-out and setting: next, B2: 0.031; B3: 0.175.
As for B4, the OD450 ratio sample/blank worked out at 0.0819.

A further test has as its target T2, soluble IL-6R in cynomolgous plasma. Nature of the test: plasma potency ELISA, purified Nanobody; competitor IL-6; cyno plasma. As for the experimental part: (§1) In this ELISA, plasma was used as a source of native soluble IL-6R. By this assay, we aimed to confirm the alphascreen results and to get a view on the cross-reactivity of the clones towards cynomolgous IL-6R. Human plasma (ELISA 1 and ELISA 3) or cynomolgous plasma (ELISA 2) were pre-incubated with a dilution of the periplasmic extract of the clones together with human IL-6 (50 ng/mL). Subsequently, plasma soluble IL-6R was captured on a B-N12 coated plate and bound IL-6 was detected using anti-IL-6 antibody BAF206 and streptavidin-HRP (ELISA 1 and ELISA 2). The ELISA signal dropped when the Nanobody clone could compete with IL-6 for binding to soluble IL-6R. ELISA 3 was a parallel ELISA in which the detection antibody was replaced by anti-IL-6R antibody BAF227 to exclude false positive competitors, which actually compete with B-N12 (e.g. family 2). Depicted in Table C-5 is the ratio of the OD450 value of the test sample versus the blank OD450 (mock sample). Clones were ordered based on ELISA 1 data.
(§2) A potency ELISA was done with the purified Nanobodies as described in Example 9. Here, different dilutions of each purified Nanobody were incubated with human (ELISA1) and cynomolgous plasma (ELISA2). IC50 values are depicted in Table C-9.
What is called IC50 is the point on the concentration scale where inhibition reaches its midpoint. In turn, B1 displayed an IC50 of 0.62 nM.
On the same count and under the same terms, next, B2: 0.55 nM; B3: 13.7 nM; B4: 2.7 nM.

Another test addresses human IL-6R on CHO-K1 cells (clone HuIL6R 4D6) (human, UniProt P08887). Nature of the test: FMAT competition; competitor Reference IgG-A647; CHO cells with human IL-6R. The procedure:
Eleven inhibitory Nanobodies were tested in competition with labelled Reference IgG for binding to CHO cells expressing hIL-6R or cynoIL-6R.
In the case of B1, the IC50 was over 100 nM.
As to B2, the IC50 was determined as 63 nM.
Molecule B3 gave a half-inhibitory concentration (IC50) of over 100 nM.
B4 registered an IC50 of 37 nM.

The next test addresses cyno IL-6R on CHO-K1 cells (clone CyIL6R 405) (cynomolgus monkey; human-rhesus). Nature of the test: FMAT competition; competitor Reference IgG-A647; CHO cells with cyno IL-6R.
Turning to B1, the IC50 was 13 nM.
The same measure, in the same setting: the result for B2 reads 27 nM; that for B3, 75 nM.
Molecule B4 yielded an IC50 of 30 nM.

In a further test the target is T1, native soluble IL-6R in human plasma. Nature of the test: plasma potency ELISA, purified Nanobody; competitor IL-6; human plasma. The procedure:
as §1, §2
The molecule B1 showed an IC50 of 0.58 nM. That is a sub-nanomolar value.
The molecule B2 came in with an IC50 of 0.47 nM.
B3 came in with an IC50 of 6.9 nM. Compared with the last molecule, the IC50 is about 15-fold higher.
For B4, the 50% inhibitory concentration (IC50) worked out at 1.73 nM. This IC50 lies about 4-fold lower than the previous one.

For another test the target is unchanged. Description: ELISA 3, periplasmic extract; competitor BN-12; human plasma.
Regarding B1, the OD450 ratio sample/blank was 0.995.
As to B2, the OD450 ratio sample/blank stood at 0.988.
Same read-out and setting: next, B3: 0.948.
The same measure, in the same setting: the result for B4 reads 1.
